# Laboratory results as given in patent US20210139581A1 (Alector, published 2021).
# Where two headings read alike, the source gives them in different places.
# Columns and labels:
# human CD33 [1] = target: T1, human CD33 (human, UniProt P20138 18-259, limits assumed); assay: BLI (ForteBio), Fab 100 nM on immobilized CD33
# T1 construct: Human CD33 immobilized on the BLI sensor tip or the BIAcore C1 chip; also called Siglec-3
# Experimental: The affinities (KD) of the humanized antibodies for human CD33 were measured for each antibody by BioLayer Interferometry in a ForteBio assay according to standard techniques (Estep et al. (2013) MAbs 5(2): 270-8). […] The assay was carried out at room temperature.
# The affinities of AB-H64 and its variants (Table 5) for human CD33 were measured by Fortebio assay according to the method described in Example 1 above.
# [2] = target: T2, human CD33 on primary human monocyte-derived dendritic cells (human, UniProt P20138 18-364); assay: cell-based or functional assay
# human CD33 [3] = target: T1, human CD33; assay: SPR (BIAcore), Fab over CD33 on C1 chip
# Experimental: The affinity parameters for 10 of the 88 humanized antibodies (AB-H1, AB-H3, AB-H6, AB-H11, AB-H22, AB-H24, AB-H26, AB-H63, AB-H64, and AB-H71) were measured in a separate experiment by a more sensitive technique, surface plasmon resonance (BIAcore), and compared to Chimeric Ab and Chimeric Ab #2. BIAcore measurements were performed as follows: human CD33 was immobilized on the surface of a C1 chip, and Fabs were injected for 300 s to monitor association, followed by a 900 s flow in running buffer to monitor dissociation. The Fabs were measured at 5 concentrations: a high concentration of 27 nM and 3-fold serial dilutions.
# In a separate experiment, as determined by the more sensitive BIAcore technique, affinity parameters of affinity matured antibodies derived from the humanized antibody AB-H64 were measured and were directly compared to that of the Chimeric Ab, according to the method described in Example 1 above.
# [4] = target: T2, human CD33 on primary human …; assay: cell-based or functional assay; remark: listed apart in the source
# [5] = target: T2, human CD33 on primary human …; assay: cell-based or functional assay; remark: listed apart in the source
# T1 sequence (P20138 18-259 limits assumed): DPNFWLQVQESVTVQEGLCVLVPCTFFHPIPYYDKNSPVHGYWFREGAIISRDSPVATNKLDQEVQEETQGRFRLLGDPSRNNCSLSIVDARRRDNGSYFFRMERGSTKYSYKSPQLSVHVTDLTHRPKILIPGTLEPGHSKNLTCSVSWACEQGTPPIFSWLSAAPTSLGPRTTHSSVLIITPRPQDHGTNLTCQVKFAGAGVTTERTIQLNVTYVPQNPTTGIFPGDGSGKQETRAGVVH
# T2 sequence (P20138 18-364): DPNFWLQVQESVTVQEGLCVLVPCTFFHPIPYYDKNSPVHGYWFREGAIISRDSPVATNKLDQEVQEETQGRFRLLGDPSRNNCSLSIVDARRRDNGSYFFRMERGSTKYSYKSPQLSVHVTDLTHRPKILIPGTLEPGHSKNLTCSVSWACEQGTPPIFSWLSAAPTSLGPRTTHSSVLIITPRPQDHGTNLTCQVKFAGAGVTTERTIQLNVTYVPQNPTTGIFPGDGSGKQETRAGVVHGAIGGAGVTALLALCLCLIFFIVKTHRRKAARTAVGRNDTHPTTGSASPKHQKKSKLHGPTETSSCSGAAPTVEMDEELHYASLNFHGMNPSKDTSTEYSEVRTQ
Binder,Fold affinity improvement over parental Ab (AB-H64) (human CD33 [1]),Kd (human CD33 [1]),Receptor downregulation (EC50) [2],Fold Change to AB-H64 (human CD33 [3]),Fold Change to Chimeric Ab (human CD33 [3]),Kd (human CD33 [3]),koff (human CD33 [3]),kon (human CD33 [3]),Maximal Downregulation (% CD33 remaining) [4],Receptor downregulation (EC50) [4],Maximal Downregulation (% CD33 remaining) [5],"Receptor downregulation (pM, EC50) [5]"
"AB-64.2 (antibody, V domains shown) VH: QVQLVQSGAEVKKPGASVKISCKASGYTFTDYNLHWVRQAPGQGLEWIGFIYPSNGITGYAQKFQGRATLTVDNSTSTAYMELSSLRSEDTAVYYCARSTVDYFDYWGQGTLLTVSS VL: DIVLTQSPDSLAVSLGERATINCRVSQDVSTSTYSYMHWYQQKPGQPPKLLIKYASNLESGVPDRFSGSGSGTDFTLTISSLQAEDVAVYYCQHSWEIPLTFGQGTKLEIK",3.64 fold,0.786 nM,0.0311 nM,46.9 fold,35.5 fold,0.0458 nM,0.000137 s⁻¹,3e+06 M⁻¹ s⁻¹,26.8%,0.0166 nM,,
"AB-64.3 (antibody, V domains shown) VH: QVQLVQSGAEVKKPGASVKISCKASGYTFTDYNLHWVRQAPGQGLEWIGFIYPSNGITGYAEKFEGRATLTVDNSTSTAYMELSSLRSEDTAVYYCARSFVDYFDYWGQGTLLTVSS VL: DIVLTQSPDSLAVSLGERATINCRASQDVSTSTYSYMHWYQQKPGQPPKLLIKYASYLESGVPDRFSGSGSGTDFTLTISSLQAEDVAVYYCEHSWEIPLTFGQGTKLEIK",6.53 fold,0.438 nM,0.0257 nM,401 fold,303 fold,0.00537 nM,2.67e-05 s⁻¹,4.98e+06 M⁻¹ s⁻¹,,,,
"AB-64.4 (antibody, V domains shown) VH: QVQLVQSGAEVKKPGASVKISCKASGYTFTDYNLHWVRQAPGQGLEWIGFIYPSNGITGYAQKFQGRATLTVDNSTSTAYMELSSLRSEDTAVYYCARSDVDYFDYWGQGTLLTVSS VL: DIVLTQSPDSLAVSLGERATINCRASQDVSTSTYSYMHWYQQKPGQPPKLLIKYASYLESGVPDRFSGSGSGTDFTLTISSLQAEDVAVYYCEHSWEIPLTFGQGTKLEIK",7.95 fold,0.36 nM,0.0236 nM,586 fold,443 fold,0.00367 nM,1.98e-05 s⁻¹,5.4e+06 M⁻¹ s⁻¹,,,,
"AB-64.5 (antibody, V domains shown) VH: QVQLVQSGAEVKKPGASVKISCKASGYTFTDYNYHWVRQAPGQGLEWIGFIYPSNGITGYAQKFFGRATLTVDNSTSTAYMELSSLRSEDTAVYYCARSDVDYFDYWGQGTLLTVSS VL: DIVLTQSPDSLAVSLGERATINCRASQSVGTSTYSYMHWYQQKPGQPPKLLIKYASNLESGVPDRFSGSGSGTDFTLTISSLQAEDVAVYYCQHSWEIPLTFGQGTKLEIK",7.76 fold,0.369 nM,0.0263 nM,214 fold,162 fold,0.0101 nM,6.33e-05 s⁻¹,6.3e+06 M⁻¹ s⁻¹,,,,
"AB-64.6 (antibody, V domains shown) VH: QVQLVQSGAEVKKPGASVKISCKASGYTFTDYNYHWVRQAPGQGLEWIGFIYPSNGITGYAQKFQGRATLTVDNSTSTAYMELSSLRSEDTAVYYCARSDVDYFDYWGQGTLLTVSS VL: DIVLTQSPDSLAVSLGERATINCRASQDVSTSTYSYMHWYQQKPGQPPKLLIKYASFLESGVPDRFSGSGSGTDFTLTISSLQAEDVAVYYCQHSWEIPLTFGQGTKLEIK",8.52 fold,0.336 nM,0.034 nM,341 fold,258 fold,0.0063 nM,3.95e-05 s⁻¹,6.26e+06 M⁻¹ s⁻¹,30.6%,0.0113 nM,,
"AB-64.7 (antibody, V domains shown) VH: QVQLVQSGAEVKKPGASVKISCKASGYTFTDYNYHWVRQAPGQGLEWIGFIYPSNGITGYAQKFQGRATLTVDNSTSTAYMELSSLRSEDTAVYYCARSDVDYFDYWGQGTLLTVSS VL: DIVLTQSPDSLAVSLGERATINCRASQSVGTSTYSYMHWYQQKPGQPPKLLIKYASNLNSGVPDRFSGSGSGTDFTLTISSLQAEDVAVYYCQHSEEIPLTFGQGTKLEIK",11.9 fold,0.24 nM,0.0306 nM,216 fold,163 fold,0.00997 nM,8.75e-05 s⁻¹,8.78e+06 M⁻¹ s⁻¹,31.2%,0.017 nM,,
"AB-64.8 (antibody, V domains shown) VH: QVQLVQSGAEVKKPGASVKISCKASGYTFTDYNYHWVRQAPGQGLEWIGFIYPSNGITGYAQKFQHRATLTVDNSTSTAYMELSSLRSEDTAVYYCARSDVDYFDYWGQGTLLTVSS VL: DIVLTQSPDSLAVSLGERATINCRASQDVSTSTYSYMHWYQQKPGQPPKLLIKYASNLESGVPDRFSGSGSGTDFTLTISSLQAEDVAVYYCQHSWEIPLTFGQGTKLEIK",10.3 fold,0.277 nM,0.0272 nM,321 fold,242 fold,0.00671 nM,4.8e-05 s⁻¹,7.15e+06 M⁻¹ s⁻¹,,,,
AB-64.1 huIgG1 (antibody) heavy: not shown light: DIVLTQSPDSLAVSLGERATINCRASQSVSTSTYSYMHWYQQKPGQPPKLLIKYASNLESGVPDRFSGSGSGTDFTLTISSLQAEDVAVYYCQHSWEIPLTFGQGTKLEIKRTVAAPSVFIFPPSDEQLKSGTASVVCLLNNFYPREAKVQWKVDNALQSGNSQESVTEQDSKDSTYSLSSTLTLSKADYEKHKVYACEVTHQGLSSPVTKSFNRGEC,,,,,,,,,,,17.5%,36.2 pM
"AB-64.1 huIgG1 SELF (antibody, V domains shown) VH: QVQLVQSGAEVKKPGASVKISCKASGYTFTDYNLHWVRQAPGQGLEWIGFIYPSNGITGYAQKFQGRATLTVDNSTSTAYMELSSLRSEDTAVYYCARSDVDYFDYWGQGTLLTVSS VL: DIVLTQSPDSLAVSLGERATINCRASQSVSTSTYSYMHWYQQKPGQPPKLLIKYASNLESGVPDRFSGSGSGTDFTLTISSLQAEDVAVYYCQHSWEIPLTFGQGTKLEIK",,,,,,,,,,,10.9%,31.9 pM
AB-64.1 huIgG2 (antibody) heavy: QVQLVQSGAEVKKPGASVKISCKASGYTFTDYNLHWVRQAPGQGLEWIGFIYPSNGITGYAQKFQGRATLTVDNSTSTAYMELSSLRSEDTAVYYCARSDVDYFDYWGQGTLLTVSSASTKGPSVFPLAPCSRSTSESTAALGCLVKDYFPEPVTVSWNSGALTSGVHTFPAVLQSSGLYSLSSVVTVPSSNFGTQTYTCNVDHKPSNTKVDKTVERKCCVECPPCPAPPVAGPSVFLFPPKPKDTLMISRTPEVTCVVVDVSHEDPEVQFNWYVDGVEVHNAKTKPREEQFNSTFRVVSVLTVVHQDWLNGKEYKCKVSNKGLPAPIEKTISKTKGQPREPQVYTLPPSREEMTKNQVSLTCLVKGFYPSDIAVEWESNGQPENNYKTTPPMLDSDGSFFLYSKLTVDKSRWQQGNVFSCSVMHEALHNHYTQKSLSLSPGK light: DIVLTQSPDSLAVSLGERATINCRASQSVSTSTYSYMHWYQQKPGQPPKLLIKYASNLESGVPDRFSGSGSGTDFTLTISSLQAEDVAVYYCQHSWEIPLTFGQGTKLEIKRTVAAPSVFIFPPSDEQLKSGTASVVCLLNNFYPREAKVQWKVDNALQSGNSQESVTEQDSKDSTYSLSSTLTLSKADYEKHKVYACEVTHQGLSSPVTKSFNRGEC,,,,,,,,,,,15.1%,35.6 pM
"AB-64.1 huIgG1 N297A (antibody, V domains shown) VH: QVQLVQSGAEVKKPGASVKISCKASGYTFTDYNLHWVRQAPGQGLEWIGFIYPSNGITGYAQKFQGRATLTVDNSTSTAYMELSSLRSEDTAVYYCARSDVDYFDYWGQGTLLTVSS VL: DIVLTQSPDSLAVSLGERATINCRASQSVSTSTYSYMHWYQQKPGQPPKLLIKYASNLESGVPDRFSGSGSGTDFTLTISSLQAEDVAVYYCQHSWEIPLTFGQGTKLEIK",,,,,,,,,,,41.3%,29.3 pM
AB-64.1 huIgG1 LALAPS (antibody) heavy: not shown light: DIVLTQSPDSLAVSLGERATINCRASQSVSTSTYSYMHWYQQKPGQPPKLLIKYASNLESGVPDRFSGSGSGTDFTLTISSLQAEDVAVYYCQHSWEIPLTFGQGTKLEIKRTVAAPSVFIFPPSDEQLKSGTASVVCLLNNFYPREAKVQWKVDNALQSGNSQESVTEQDSKDSTYSLSSTLTLSKADYEKHKVYACEVTHQGLSSPVTKSFNRGEC,,,,,,,,,,,39.4%,57.1 pM
